{"source": "paper doi:10.1101/2025.11.06.687086", "about": "(2025)", "molecular_target": "A/Texas/37/2024 (H5N1) HA (influenza A virus A/Texas/37/2024 (H5N1))", "experiment": "BLI", "data": [{"binder": "HB31 VH R55G germline revertant Fab (Fab, V domains shown) VH: EVQLLESGGGLVQPGGSLRLSCTVSGFTSSNYDMSWVRQAPGKGLEWVSGISGTGGDTYYADSVKGRFTISRDNSKNTLSLQMNSLRADDTAVYFCARDRPVLRYFDWQPYGLDVWGKGTTVTVSS VL: QSALTQPPSASGSPGQSVTISCTGTSSDVGGYNYVSWYQQYPSKAPKLMIYEVSKRPSGVPDRFSGSKSGNTASLTVSGLQAEDEADYYCNSYAGSNLYVFGTGTKVTVL", "values": [{"measurement": "Kd", "value": 10.5, "unit": "nM"}]}, {"binder": "HB31 Fab (Fab, V domains shown) VH: EVQLLESGGGLVQPGGSLRLSCTVSGFTSSNYDMSWVRQAPGKGLEWVSGISGTGRDTYYADSVKGRFTISRDNSKNTLSLQMNSLRADDTAVYFCARDRPVLRYFDWQPYGLDVWGKGTTVTVSS VL: QSALTQPPSASGSPGQSVTISCTGTSSDVGGYNYVSWYQQYPSKAPKLMIYEVSKRPSGVPDRFSGSKSGNTASLTVSGLQAEDEADYYCNSYAGSNLYVFGTGTKVTVL", "values": [{"measurement": "Kd", "value": 4.5, "unit": "nM"}]}]}
